Assay results published in patent publication US20190161551A1 (Regeneron, published 2019).
Blank lines part the entries; values can stand above or below the binder they belong to.

Key:
mouse TrkB.hFc [1] = target: T1, mouse TrkB.hFc (mouse); experiment: BLI Octet, captured mTrkB.hFc saturated with BDNF, 300 nM mAb
T1 construct: also called mTrkB.hFc; mTrkB-hFc
Protocol: (§1) Blocking of anti-human TrkB or anti-mouse TrkB antibodies from binding to TrkB by BDNF or NT-4 was evaluated using a real-time bio-layer interferometry (BLI) based Octet HTX instrument. The entire study was performed in 10 mM HEPES pH 7.4, 300 mM NaCl, 3 mM EDTA, 1 mg/mL BSA, 0.02% NaN3 and 0.05% v/v Surfactant Tween-20 (HBS-EBT running buffer) at 25° C. All the samples were dispensed in a 384 tilted well plate and the plate was placed on the orbital shaker with the shake speed of 1000 rpm. hTrkB.mFc was captured on anti-mFc (AMC) Octet sensors while hTrkB.hFc or mTrkB.hFc were captured on anti-hFc (AHC) Octet sensors by dipping in wells containing 10 μg/mL of TrkB reagents for 2 minutes. hTrkB.mFc or hTrkB.hFc captured Octet biosensors were saturated by dipping in wells containing 20 nM of BDNF, hNT-4, or mNT-4 for 2 minutes followed by dipping Octet biosensors in wells containing 300 nM of different TrkB mAbs for 4 minutes. Binding of TrkB mAbs to the complex of TrkB and BDNF, hNT-4, or mNT-4 was determined using Scrubber 2.0c analysis software.

[2] = target: mouse TrkB extracellular domain fused to the transmembrane and cytoplasmic domains of human TrkB, expressed … (mouse; human, UniProt Q16620 431-822, limits assumed); experiment: cell-based or functional assay
mouse TrkB extracellular domain fused to the transmembrane and cytoplasmic domains of human TrkB, expressed …, sequence (Q16620 other isoform, or with tags, fused parts or gaps limits assumed, form in doubt): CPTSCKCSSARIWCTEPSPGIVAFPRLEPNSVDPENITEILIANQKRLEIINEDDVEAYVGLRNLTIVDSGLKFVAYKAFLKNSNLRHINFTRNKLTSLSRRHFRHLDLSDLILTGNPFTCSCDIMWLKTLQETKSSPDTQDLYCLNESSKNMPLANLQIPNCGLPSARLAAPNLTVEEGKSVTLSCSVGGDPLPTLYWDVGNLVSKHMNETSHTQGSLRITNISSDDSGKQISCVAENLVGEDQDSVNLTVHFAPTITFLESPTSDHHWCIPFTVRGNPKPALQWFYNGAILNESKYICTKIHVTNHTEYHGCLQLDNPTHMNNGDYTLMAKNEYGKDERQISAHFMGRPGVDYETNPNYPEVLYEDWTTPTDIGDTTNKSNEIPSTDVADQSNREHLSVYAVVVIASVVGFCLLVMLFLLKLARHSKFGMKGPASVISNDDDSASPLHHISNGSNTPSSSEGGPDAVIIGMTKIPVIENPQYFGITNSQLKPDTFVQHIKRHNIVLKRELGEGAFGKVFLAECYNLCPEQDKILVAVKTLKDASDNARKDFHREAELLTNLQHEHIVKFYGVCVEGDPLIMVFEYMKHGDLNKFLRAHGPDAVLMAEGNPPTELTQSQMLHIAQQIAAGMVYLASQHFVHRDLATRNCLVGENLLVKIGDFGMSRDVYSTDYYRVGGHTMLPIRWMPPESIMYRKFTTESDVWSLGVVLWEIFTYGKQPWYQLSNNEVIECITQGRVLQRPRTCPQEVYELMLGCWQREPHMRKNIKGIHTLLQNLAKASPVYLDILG

[3] = target: human TrkB expressed on HEK293/SRE-Luc/hTrkB cells (human, UniProt Q16620 32-822); experiment: cell-based or functional assay
human TrkB expressed on HEK293/SRE-Luc/hTrkB cells, sequence (Q16620 32-822): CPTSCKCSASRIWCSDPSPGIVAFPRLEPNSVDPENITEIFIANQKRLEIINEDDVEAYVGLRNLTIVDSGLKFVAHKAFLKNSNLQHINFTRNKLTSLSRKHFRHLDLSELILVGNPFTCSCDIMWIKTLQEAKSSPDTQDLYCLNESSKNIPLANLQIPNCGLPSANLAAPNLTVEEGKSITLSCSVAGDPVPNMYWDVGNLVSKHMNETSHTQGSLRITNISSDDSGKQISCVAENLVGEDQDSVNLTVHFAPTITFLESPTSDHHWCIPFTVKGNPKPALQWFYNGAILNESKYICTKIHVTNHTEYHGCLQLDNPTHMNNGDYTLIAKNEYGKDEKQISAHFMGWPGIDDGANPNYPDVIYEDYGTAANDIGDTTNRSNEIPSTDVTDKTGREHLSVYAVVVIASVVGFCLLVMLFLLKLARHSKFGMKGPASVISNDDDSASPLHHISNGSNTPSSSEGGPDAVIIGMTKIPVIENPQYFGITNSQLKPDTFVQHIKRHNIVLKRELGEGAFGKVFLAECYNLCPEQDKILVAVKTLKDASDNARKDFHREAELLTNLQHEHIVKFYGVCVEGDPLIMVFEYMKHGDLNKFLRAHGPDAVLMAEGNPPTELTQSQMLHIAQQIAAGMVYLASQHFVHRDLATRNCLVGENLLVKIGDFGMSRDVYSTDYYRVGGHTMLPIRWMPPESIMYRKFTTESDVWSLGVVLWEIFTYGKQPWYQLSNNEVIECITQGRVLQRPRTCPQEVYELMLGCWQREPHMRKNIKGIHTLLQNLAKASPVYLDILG

mouse TrkB.hFc [4] = target: T1, mouse TrkB.hFc; experiment: blocking ELISA, mouse TrkB.hFc pre-mixed with mAb, plate-coated BDNF
Protocol: (§2) Experiments were carried out using the following procedure. Human BDNF was coated at a concentration of 0.5 μg/mL (for blocking mouse TrkB.hFc interaction) or 0.3 μg/mL (for blocking rat TrkB.mmh interaction) in PBS on 96-well microtiter plate and incubated overnight at 4° C. […] In a 96-well dilution plate, 850 pM mouse TrkB.hFc or rat TrkB.mmh was mixed with the three-fold serially diluted anti-mouse TrkB antibodies and control antibody. The final antibody concentrations ranged from 1.69 pM to 100 nM. The protein-antibody mix was incubated at room temperature (RT) for 1 hour. The pre-bound mix was then transferred in duplicates to microtiter plates coated with BDNF. A control containing assay buffer alone was included to calculate the baseline of the assay. The ELISA plates were incubated at RT for 1 hour and then washed with plate washing solution. Plate-bound mouse TrkB.hFc was detected with HRP-conjugated goat anti-human Fcγ fragment specific antibody (Jackson Immunoresearch) and rat TrkB.mmh was detected with HRP-conjugated anti-histidine antibody (Qiagen). The plates were incubated with detection antibody for 1 hour at RT and then washed with plate washing solution. The assay plates were developed with TMB colorimetric substrates according to the manufacturer's recommended procedure.
(§3) The absorbance at 450 nm for each well was recorded and plotted as a function of the concentration of antibody. Data was analyzed in GraphPad Prism software using a four-parameter logistic equation over an 11-point dose response curve and IC₅₀ values were calculated. […] Percent blockade at maximum concentration of the antibody tested was calculated as an indicator of the ability of the antibodies to block the binding of TrkB to BDNF on the plate relative to the baseline of the assay. Binding signal of 850 pM mouse or rat TrkB in absence of the antibody was defined as 100% binding or 0% blocking. The baseline signal of assay buffer alone was defined as 0% binding or 100% blocking.

mouse TrkB.hFc [5] = target: T1, mouse TrkB.hFc; experiment: BLI Octet, captured mTrkB.hFc, 300 nM mAb (BDNF run)
Protocol: Blocking of BDNF or NT-4 from binding to TrkB by anti-human TrkB or anti-mouse TrkB antibodies was evaluated using a real-time bio-layer interferometry (BLI) based Octet HTX instrument. The entire study was performed in 10 mM HEPES pH 7.4, 300 mM NaCl, 3 mM EDTA, 1 mg/mL BSA, 0.02% NaN3 and 0.05% v/v Surfactant Tween-20 (HBS-EBT running buffer) at 25° C. All the samples were dispensed in a 384 tilted well plate and the plate was placed on the orbital shaker with the shake speed of 1000 rpm. hTrkB.mFc was captured on anti-mFc (AMC) Octet sensors while hTrkB.hFc or mTrkB.hFc were captured on anti-hFc (AHC) Octet sensors by dipping in wells containing 10 μg/mL of TrkB reagents for 2 minutes. hTrkB.mFc or hTrkB.hFc captured Octet biosensors were saturated by dipping in wells containing 300 nM of different TrkB mAbs for 4 minutes followed by dipping Octet biosensors in wells containing 20 nM of BDNF, hNT-4, or mNT-4 for 2 minutes. Binding of BDNF, hNT-4, or mNT-4 to the complex of TrkB and different TrkB mAbs was determined using Scrubber 2.0c analysis software.

[6] = target: T2, rat TrkB extracellular domain expressed with a C-terminal myc-myc-hexahistidine tag (rat, UniProt Q63604 32-429); experiment: blocking ELISA, rat TrkB.mmh pre-mixed with mAb, plate-coated BDNF
T2 construct: also called rTrkB.mmH; rTRKB.mmH
T2 sequence (Q63604 other isoform, or with tags, fused parts or gaps): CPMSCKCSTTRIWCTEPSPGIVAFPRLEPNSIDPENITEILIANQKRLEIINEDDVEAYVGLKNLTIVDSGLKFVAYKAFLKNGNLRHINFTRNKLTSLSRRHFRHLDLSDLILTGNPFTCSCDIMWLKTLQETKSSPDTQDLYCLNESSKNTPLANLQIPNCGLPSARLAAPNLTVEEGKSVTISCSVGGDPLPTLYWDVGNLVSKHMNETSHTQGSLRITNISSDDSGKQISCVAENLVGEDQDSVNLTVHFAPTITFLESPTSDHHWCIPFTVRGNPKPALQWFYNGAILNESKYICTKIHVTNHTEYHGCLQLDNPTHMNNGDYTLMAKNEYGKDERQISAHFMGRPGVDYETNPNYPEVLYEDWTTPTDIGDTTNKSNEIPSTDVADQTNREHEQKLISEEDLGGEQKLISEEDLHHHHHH
Protocol: as §2, §3

[7] = target: T3, human TrkB extracellular domain expressed with a C-terminal mouse IgG2a Fc tag (human); experiment: BLI Octet, captured hTrkB.mFc, 300 nM mAb (hNT-4 run)
T3 construct: also called hTrkB-mFc; hTrkB.mFc
T3 sequence (chain, as listed by the source limits assumed): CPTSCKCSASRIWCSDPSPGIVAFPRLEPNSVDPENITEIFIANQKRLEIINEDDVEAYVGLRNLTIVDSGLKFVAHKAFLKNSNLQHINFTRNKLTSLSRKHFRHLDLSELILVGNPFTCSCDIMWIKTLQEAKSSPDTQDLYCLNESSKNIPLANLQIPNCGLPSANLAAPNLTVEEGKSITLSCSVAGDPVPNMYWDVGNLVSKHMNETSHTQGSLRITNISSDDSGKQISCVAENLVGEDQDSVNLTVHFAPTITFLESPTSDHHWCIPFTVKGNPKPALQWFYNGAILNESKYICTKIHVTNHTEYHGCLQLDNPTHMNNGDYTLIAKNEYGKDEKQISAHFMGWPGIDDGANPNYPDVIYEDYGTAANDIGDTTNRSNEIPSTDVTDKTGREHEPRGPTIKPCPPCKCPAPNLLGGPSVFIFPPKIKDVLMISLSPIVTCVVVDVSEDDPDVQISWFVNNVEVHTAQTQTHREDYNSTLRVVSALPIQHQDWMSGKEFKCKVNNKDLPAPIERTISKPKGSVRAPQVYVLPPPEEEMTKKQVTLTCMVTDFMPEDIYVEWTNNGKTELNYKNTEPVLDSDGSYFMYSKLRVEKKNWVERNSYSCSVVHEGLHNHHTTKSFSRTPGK
Protocol: as §1

T1 sequence (chain, as listed by the source limits assumed): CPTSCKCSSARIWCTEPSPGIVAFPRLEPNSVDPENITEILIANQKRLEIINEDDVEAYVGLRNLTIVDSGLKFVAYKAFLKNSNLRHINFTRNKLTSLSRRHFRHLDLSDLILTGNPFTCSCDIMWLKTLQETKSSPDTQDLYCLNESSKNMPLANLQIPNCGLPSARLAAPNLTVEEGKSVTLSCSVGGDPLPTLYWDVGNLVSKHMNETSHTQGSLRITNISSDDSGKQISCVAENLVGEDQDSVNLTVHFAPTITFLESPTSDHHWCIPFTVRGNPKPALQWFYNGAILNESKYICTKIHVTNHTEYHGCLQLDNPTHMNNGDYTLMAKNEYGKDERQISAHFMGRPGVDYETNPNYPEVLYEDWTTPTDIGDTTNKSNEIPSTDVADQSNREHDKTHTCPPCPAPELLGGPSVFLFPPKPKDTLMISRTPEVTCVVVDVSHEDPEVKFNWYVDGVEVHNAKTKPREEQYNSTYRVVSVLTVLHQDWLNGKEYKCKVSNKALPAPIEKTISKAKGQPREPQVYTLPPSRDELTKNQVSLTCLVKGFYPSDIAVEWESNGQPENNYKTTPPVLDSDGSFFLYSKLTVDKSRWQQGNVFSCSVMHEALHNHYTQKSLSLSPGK

B2: M2aM14173N (antibody, mouse IgG2a, kappa, V domains shown)
VH: NVSLVESGGGSVKPGGSLQLSCAASGFTFSSSAMSWIRQTPEMRLEWVATISDRGSYTYYPDSVEGRFTISRDNAKNILYLQMSHLMSEDTAMYYCARGKGEKAYYTAFFAYWGQGSLVTVSA
VL: DIQMTQSPASLSASVGETVTITCRASENIYSYLAWYQQKPGKSPHLLVHNAETLAEGVPSRFSGSGSGPQFSLKINSLQPGDSGTYYCQHHYSSPWTFGGGTKLEIKR
notes: Anti-mouse TrkB antibody from hybridoma, mouse IgG2a Fc; also called surrogate anti-mouse TrkB antibody
antibody Binding (nm) (mouse TrkB.hFc [1]): 0.38 nm | Activation (%), SRE-luciferase, 100 pM BDNF [2]: 74% | Activation (%), SRE-luciferase, No BDNF [2]: 94% | EC50 (M), SRE-luciferase, 100 pM BDNF [2]: 1.7e-11 M | EC50 (M), SRE-luciferase, No BDNF [2]: 3.6e-11 M | Activation (%), SRE-luciferase, 100 pM BDNF [3]: 59% | Activation (%), SRE-luciferase, No BDNF [3]: 2% | % Blockade with 100 nM antibody (mouse TrkB.hFc [4]): 29.7% | mAb Binding (nm) (mouse TrkB.hFc [5]): 0.42 nm | % Blockade with 100 nM antibody [6]: 80.7% | IC50 [6]: 3.81 nM

B5: H1M8037C (antibody, mouse IgG1, kappa, V domains shown)
VH: QVQLVQSGAEVKKPGASVKVSCKASGYTFTNYDIIWVRQAPGQGLEWMGYINPYNDGTKYNEKFKGRVTMTRDTSTSTVYMELSSLRSEDTAVYYCARLLKYRRFRYYAIDYWGQGTTVTVSS
VL: DIQMTQSPSSLSASVGDRVTITCRTSENVYSNLAWYQQKPGKAPKLLIYAASNLQSGVPSRFSGSGSGTDYTFTISSLQPEDIATYYCQHFWGSPFTFGQGTKLEIKR
notes: captured by anti-mFc in SPR; also called Comparator; comparator anti-TrkB monoclonal antibody
antibody Binding (nm) (mouse TrkB.hFc [1]): 0.06 nm | Activation (%), SRE-luciferase, 100 pM BDNF [2]: 69% | Activation (%), SRE-luciferase, No BDNF [2]: 85% | EC50 (M), SRE-luciferase, 100 pM BDNF [2]: 4.2e-11 M | EC50 (M), SRE-luciferase, No BDNF [2]: 4.3e-11 M | Activation (%), SRE-luciferase, 100 pM BDNF [3]: 79% | Activation (%), SRE-luciferase, No BDNF [3]: 80% | EC50 (M), SRE-luciferase, 100 pM BDNF [3]: 1.1e-10 M | EC50 (M), SRE-luciferase, No BDNF [3]: 5.7e-11 M | % Blockade with 100 nM antibody (mouse TrkB.hFc [4]): 91.5% | IC50 (mouse TrkB.hFc [4]): 0.18 nM | mAb Binding (nm) (mouse TrkB.hFc [5]): 0.42 nm | % Blockade with 100 nM antibody [6]: 83.3% | IC50 [6]: 1.42 nM

The next lines start with the values.

antibody Binding (nm) (mouse TrkB.hFc [1]): 0.44 nm | Activation (%), SRE-luciferase, 100 pM BDNF [2]: 75% | Activation (%), SRE-luciferase, No BDNF [2]: 87% | EC50 (M), SRE-luciferase, 100 pM BDNF [2]: 2.1e-11 M | EC50 (M), SRE-luciferase, No BDNF [2]: 3.4e-11 M | Activation (%), SRE-luciferase, 100 pM BDNF [3]: 52% | Activation (%), SRE-luciferase, No BDNF [3]: 4% | % Blockade with 100 nM antibody (mouse TrkB.hFc [4]): 11.6% | mAb Binding (nm) (mouse TrkB.hFc [5]): 0.42 nm | % Blockade with 100 nM antibody [6]: -38.1%
B1: M2aM14179N (antibody, mouse IgG2a, kappa, V domains shown)
VH: EVQLQQSGPELVKPGASVKISCKASGYTLTDYYMNWVKQSHGKSLEWIGDINPNNGGTSYNQKFKGKATLTVDKSSSTAYMELRSLTSEDSAVYYCARGAYYSNYFDYWGQGTTLTVSS
VL: DIVMSQSPSSLAVSAGEKVTMSCKSSQSLLNSRTRKNYLAWYQQKPGQSPKLLIYWASTRESGVPDRFTGSGSGTDFTLTISSVQAEDLAVYYCKQSYILFTFGSGTQLEIKR
notes: as for B2

mAb Binding (nm) [7]: 0.18 nm
B3: H4H9816P2 (antibody, human IgG4 S228P, kappa, V domains shown)
VH: EVQLVESGGGLVQPGGSLTLSCAASGFNFRDYEMIWVRQTPGKGLEWISYISNSGYTIYYADSVKGRFTISRDNARNSIYLQVNSLRAEDTAVYYCSRRTTMIRGIRAYYYYGLDVWGQGTTVTVSS
VL: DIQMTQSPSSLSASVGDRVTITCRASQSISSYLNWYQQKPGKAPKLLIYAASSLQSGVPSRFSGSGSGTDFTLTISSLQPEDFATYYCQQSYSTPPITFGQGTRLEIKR
notes: Fully human anti-human TrkB agonist antibody, human IgG4 Fc; also called H4H9816P-L1

mAb Binding (nm) [7]: 0.18 nm
B4: H4H9814P (antibody, human IgG4 S228P, kappa, V domains shown)
VH: EVQLVESGGGLVQPGGSLKLSCTASGFTFSGSVIHWVRQASGKGLEWIGRIRNKANSYATAYGASVTGRFTISRDDSKNTAYLQMNSLKTEDTAVYYCTFPGVVGRGGFDYWGQGTLVTVSS
VL: DIVMTQSPDSLAVSLGEGATINCMSSQSVLFSSNNKNYLAWYQQKPGQPPKLLFYWASTRESGVPDRFGGSGSGTDFSLTINSLQTEDVAVYYCLQYYSIPWTFGQGTKVEIKR
notes: Fully human anti-human TrkB agonist antibody, human IgG4 Fc; also called H4H9814P-L1

mAb Binding (nm) [7]: 0.18 nm
B6: H4H9780P (antibody, human IgG4 S228P, kappa, V domains shown)
VH: QVQLVESGGGVVQPGRSLRLSCAASGFSFSSFGMHWVRQAPGKGLEWVSVISYDGINTYYTDSVKGRFTISRDNSKNTLYLQMNGLRAEDTALYYCVQGSIGTVFEYWGQGTLVTVSS
VL: DIQMTQSPSSLSASVGDRVTITCRASQGISNYLAWYQQKPGKVPKLLIYAASTLQSGVPSRFGGSGSGTDFTLTISSLQPEDVATYYCQKYTSAPFTFGPGTKVDIKR
notes: Fully human anti-human TrkB agonist antibody, human IgG4 Fc; also called H4H9780P-L1
